# According to the RNAGym collection of RNA variant scans (doi:10.1073/pnas.2313332121):
# B1: TPR t1 (parent)
# chain: GACCAAUCUGCCCUCAGAGCUCGAGAACAUCUUCGGAUGCAGAGGAGGCAGGCUUCGGUGGCGCGAUAGCGCCAACGUCCUCAACCUCCAAUGCAUCCCACCACAUGAUGAUGCCUGAAGAGCCUUGGUUUUUUG
# Variants of: B1
# Experiment: polymerase ribozyme fitness, log enrichment relative to wild type (log ratio); higher = more active; in vitro selection for triplet polymerase activity
# Outline: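 Mutant libraries of both subunits of a heterodimeric triplet polymerase ribozyme were PCR-built, transcribed, and selected once in triplicate, with frozen incubation at −7 °C and capture of gel-excised extended constructs on streptavidin beads before RT-PCR. Illumina sequencing of input and output libraries was filtered to genotypes with ≥10 input reads and ≥1 read per output. Fitness is the logarithm of genotype enrichment over wild-type enrichment, using inverse-variance-weighted replicate averages. The logarithm is base 2.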
row,Variant,polymerase ribozyme fitness (log ratio)
1,A50U U106A,-0.951
2,C49U C70G,-3.77
3,G51A C62A U116G C124A,-5.64
4,C49G G58C,-3.36
5,C49A C62G C76U,-5.79
6,C49A C53A C70U C86A U112G G128A,-5.42
7,C49A C82U G93C C99U G122U,-3.82
8,G51A A68C C79G C80G A84C C124G G128C,-7.23
9,C49U G69U,0.911
10,C49U G69C,-1.79
11,G51A A121U,-0.44
12,C49A G128C,-3.42
13,A50C G63U U81A,-1.63
14,C49A U78C,-0.24
15,G51A C53G,-2.12
16,C49U C53U C97U,-1.14
17,C49U C62U A118U,-0.00141
18,A50U A84G,-3.04
19,A50G C62U G69U C80A,-3.77
20,A50U C85A,-2.11
21,A50U A91C,-3.23

row,Variant,polymerase ribozyme fitness (log ratio)
1,A50U G63A C124G,-0.873
2,A50C C86G G127U,-2.12
3,C49A G117A,-1.89
4,C49G A95U A111G,-0.422
5,G48U C89U C124G G128A,-0.497
6,C49U C102G C104A C124A U130A,-4.4
7,C49U G51A C88A,-3.64
8,C49U G51A,-1.4
9,A50U C72U,-1.18
10,A50U C72G,-1.6
11,C49U C82U A121U G127A,0.337
12,A50G C53G G61A U116A G117A,-3.29
13,G48U G61A C89A A119U,-2.48
14,G51A C89U U130A,-3.01
15,G48U G52U G63C,-2.05
16,C49A C85A,-1.43
17,A50U U87A,-1.09
18,A50U C73A C80G C85A A90G G127U,-2.82
19,G48U U54G U129A,-1.88
20,A50C G93U U112G,-2.03
21,A50C G60C C64A A103G C104A C124U,-5.11

row,Variant,polymerase ribozyme fitness (log ratio)
1,C49A U81A U87G,-0.13
2,C49U A95G,-1.14
3,C49A A50C C56A C79A U132A,-3.18
4,C49U G71A U130C,-1.63
5,G48U G71C,-1.77
6,G48U U81G A91G G117U A119U,-7.47
7,G51A C56U A84U C99U A121U,-5.26
8,G48U C79U G135C,-1.81
9,G51A C56U A84G A95G U96A,-5.06
10,C49U C72G U78C,-1.33
11,G48U C88G U96A,-3.43
12,C49G C56A C94U A111G,-1.5
13,C49G C56A,-2.63
14,A50C U55C U106G,-2.2
15,A50C C79G U125A,-1.78
16,C49A G52U A105U,-3.88
17,A50C U59C C86U,-0.825
18,A50U G117C,-2.96
19,A50C C53U G57A U96A G117A U132A,-5.61
20,A50U C76A G77A,-1.53
21,C49G C70U,-1.3

row,Variant,polymerase ribozyme fitness (log ratio)
1,A50C C56G,-0.303
2,C49G C64A G77U A83U G120U,-6.63
3,A50U C101G U106A A118G C124A,0.335
4,C49G G65U,-4.97
5,G48U U55G G69C G93U,-2.93
6,G51C C72A U129G,-4.58
7,C49A U92C,-1.43
8,C49A U92G,-3.98
9,G51C C56A G77U U78A,-3.51
10,C49G G93A,-1.26
11,A50G G63U U130A,-2.47
12,C49G U112C G113A,-2.11
13,C49G G69C U78C,-2.8
14,G51A G93U,-4.23
15,G51A G93A,-3.45
16,A50G A83C C123U,-0.187
17,C49A C56U G110C,-5.23
18,C49A C53G C73U A74G A100U,-2.75
19,C49A C102G C114U C115G,-6.27
20,A50C C115U,-1.47
21,C49G U59G C62G C72U,-4.88
